Non-standard residues stand in square brackets, D forms with d. No end group written: not given here. Ala(4-thiazolyl) = N[C@@H](Cc1cscn1)C(=O)O; 1Nal = N[C@@H](Cc1cccc2ccccc12)C(=O)O; Chg = N[C@H](C(=O)O)C1CCCCC1; Phg = N[C@H](C(=O)O)c1ccccc1; Tle = CC(C)(C)[C@H](N)C(=O)O; Nle = CCCC[C@H](N)C(=O)O
B1: SEQ ID NO: 23 (peptide)
peptide: [Ala(4-thiazolyl)]SQGTFTSD[Chg]SKQLESRRAQDFIEWLLATGPESGAPPPS-OH
modifications: N-terminus assumed
SMILES: CC[C@H](C)[C@H](NC(=O)[C@H](Cc1ccccc1)NC(=O)[C@H](CC(=O)O)NC(=O)[C@H](CCC(N)=O)NC(=O)[C@H](C)NC(=O)[C@H](CCCNC(=N)N)NC(=O)[C@H](CCCNC(=N)N)NC(=O)[C@H](CO)NC(=O)[C@H](CCC(=O)O)NC(=O)[C@H](CC(C)C)NC(=O)[C@H](CCC(N)=O)NC(=O)[C@H](CCCCN)NC(=O)[C@H](CO)NC(=O)[C@@H](NC(=O)[C@H](CC(=O)O)NC(=O)[C@H](CO)NC(=O)[C@@H](NC(=O)[C@H](Cc1ccccc1)NC(=O)[C@@H](NC(=O)CNC(=O)[C@H](CCC(N)=O)NC(=O)[C@H](CO)NC(=O)[C@@H](N)Cc1cscn1)[C@@H](C)O)[C@@H](C)O)C1CCCCC1)C(=O)N[C@@H](CCC(=O)O)C(=O)N[C@@H](Cc1c[nH]c2ccccc12)C(=O)N[C@@H](CC(C)C)C(=O)N[C@@H](CC(C)C)C(=O)N[C@@H](C)C(=O)N[C@H](C(=O)NCC(=O)N1CCC[C@H]1C(=O)N[C@@H](CCC(=O)O)C(=O)N[C@@H](CO)C(=O)NCC(=O)N[C@@H](C)C(=O)N1CCC[C@H]1C(=O)N1CCC[C@H]1C(=O)N1CCC[C@H]1C(=O)N[C@@H](CO)C(=O)O)[C@@H](C)O
B2: SEQ ID NO: 24 (peptide)
peptide: [Ala(4-thiazolyl)]SQGTFTSD[Chg]SKQ[Nle]ESRRAQEFIEWLLATGPESGAPPPS-OH
modifications: N-terminus assumed
SMILES: CCCC[C@H](NC(=O)[C@H](CCC(N)=O)NC(=O)[C@H](CCCCN)NC(=O)[C@H](CO)NC(=O)[C@@H](NC(=O)[C@H](CC(=O)O)NC(=O)[C@H](CO)NC(=O)[C@@H](NC(=O)[C@H](Cc1ccccc1)NC(=O)[C@@H](NC(=O)CNC(=O)[C@H](CCC(N)=O)NC(=O)[C@H](CO)NC(=O)[C@@H](N)Cc1cscn1)[C@@H](C)O)[C@@H](C)O)C1CCCCC1)C(=O)N[C@@H](CCC(=O)O)C(=O)N[C@@H](CO)C(=O)N[C@@H](CCCNC(=N)N)C(=O)N[C@@H](CCCNC(=N)N)C(=O)N[C@@H](C)C(=O)N[C@@H](CCC(N)=O)C(=O)N[C@@H](CCC(=O)O)C(=O)N[C@@H](Cc1ccccc1)C(=O)N[C@H](C(=O)N[C@@H](CCC(=O)O)C(=O)N[C@@H](Cc1c[nH]c2ccccc12)C(=O)N[C@@H](CC(C)C)C(=O)N[C@@H](CC(C)C)C(=O)N[C@@H](C)C(=O)N[C@H](C(=O)NCC(=O)N1CCC[C@H]1C(=O)N[C@@H](CCC(=O)O)C(=O)N[C@@H](CO)C(=O)NCC(=O)N[C@@H](C)C(=O)N1CCC[C@H]1C(=O)N1CCC[C@H]1C(=O)N1CCC[C@H]1C(=O)N[C@@H](CO)C(=O)O)[C@@H](C)O)[C@@H](C)CC
B3: SEQ ID NO: 25 (peptide)
peptide: [Ala(4-thiazolyl)]SQGTFTSD[Tle]SKQ[Nle]ESRRAQEFIEWLLATGPESGAPPPS-OH
modifications: N-terminus assumed
SMILES: CCCC[C@H](NC(=O)[C@H](CCC(N)=O)NC(=O)[C@H](CCCCN)NC(=O)[C@H](CO)NC(=O)[C@@H](NC(=O)[C@H](CC(=O)O)NC(=O)[C@H](CO)NC(=O)[C@@H](NC(=O)[C@H](Cc1ccccc1)NC(=O)[C@@H](NC(=O)CNC(=O)[C@H](CCC(N)=O)NC(=O)[C@H](CO)NC(=O)[C@@H](N)Cc1cscn1)[C@@H](C)O)[C@@H](C)O)C(C)(C)C)C(=O)N[C@@H](CCC(=O)O)C(=O)N[C@@H](CO)C(=O)N[C@@H](CCCNC(=N)N)C(=O)N[C@@H](CCCNC(=N)N)C(=O)N[C@@H](C)C(=O)N[C@@H](CCC(N)=O)C(=O)N[C@@H](CCC(=O)O)C(=O)N[C@@H](Cc1ccccc1)C(=O)N[C@H](C(=O)N[C@@H](CCC(=O)O)C(=O)N[C@@H](Cc1c[nH]c2ccccc12)C(=O)N[C@@H](CC(C)C)C(=O)N[C@@H](CC(C)C)C(=O)N[C@@H](C)C(=O)N[C@H](C(=O)NCC(=O)N1CCC[C@H]1C(=O)N[C@@H](CCC(=O)O)C(=O)N[C@@H](CO)C(=O)NCC(=O)N[C@@H](C)C(=O)N1CCC[C@H]1C(=O)N1CCC[C@H]1C(=O)N1CCC[C@H]1C(=O)N[C@@H](CO)C(=O)O)[C@@H](C)O)[C@@H](C)CC
B4: SEQ ID NO: 26 (peptide)
peptide: HSQGTFTSDLSKQ[Nle]ESRRAQDFIEWLLATGPESGAPPPS-OH
modifications: N-terminus assumed
SMILES: CCCC[C@H](NC(=O)[C@H](CCC(N)=O)NC(=O)[C@H](CCCCN)NC(=O)[C@H](CO)NC(=O)[C@H](CC(C)C)NC(=O)[C@H](CC(=O)O)NC(=O)[C@H](CO)NC(=O)[C@@H](NC(=O)[C@H](Cc1ccccc1)NC(=O)[C@@H](NC(=O)CNC(=O)[C@H](CCC(N)=O)NC(=O)[C@H](CO)NC(=O)[C@@H](N)Cc1c[nH]cn1)[C@@H](C)O)[C@@H](C)O)C(=O)N[C@@H](CCC(=O)O)C(=O)N[C@@H](CO)C(=O)N[C@@H](CCCNC(=N)N)C(=O)N[C@@H](CCCNC(=N)N)C(=O)N[C@@H](C)C(=O)N[C@@H](CCC(N)=O)C(=O)N[C@@H](CC(=O)O)C(=O)N[C@@H](Cc1ccccc1)C(=O)N[C@H](C(=O)N[C@@H](CCC(=O)O)C(=O)N[C@@H](Cc1c[nH]c2ccccc12)C(=O)N[C@@H](CC(C)C)C(=O)N[C@@H](CC(C)C)C(=O)N[C@@H](C)C(=O)N[C@H](C(=O)NCC(=O)N1CCC[C@H]1C(=O)N[C@@H](CCC(=O)O)C(=O)N[C@@H](CO)C(=O)NCC(=O)N[C@@H](C)C(=O)N1CCC[C@H]1C(=O)N1CCC[C@H]1C(=O)N1CCC[C@H]1C(=O)N[C@@H](CO)C(=O)O)[C@@H](C)O)[C@@H](C)CC
B5: SEQ ID NO: 27 (peptide)
peptide: HSQGTFTSDLSKQLESRRAQEFIEWLLAGGPESGAPPPS-OH
B6: SEQ ID NO: 28 (peptide)
peptide: HSQGTFTSDYSKQLESRRAQEFIEWLLAGGPESGAPPPS-OH
B7: SEQ ID NO: 29 (peptide)
peptide: HSQGTFTSDYSKQLESRRAQEFIEWLLATGPESGAPPPS-OH
B8: SEQ ID NO: 30 (peptide)
peptide: HSQGTFTSDVSKQLESRRAQEFIEWLLATGPESGAPPPS-OH
B9: SEQ ID NO: 31 (peptide)
peptide: HSQGTFTSDISKQLESRRAQEFIEWLLATGPESGAPPPS-OH
B10: SEQ ID NO: 32 (peptide)
peptide: HSQGTFTSD[Phg]SKQLESRRAQEFIEWLLATGPESGAPPPS-OH
modifications: N-terminus assumed
SMILES: CC[C@H](C)[C@H](NC(=O)[C@H](Cc1ccccc1)NC(=O)[C@H](CCC(=O)O)NC(=O)[C@H](CCC(N)=O)NC(=O)[C@H](C)NC(=O)[C@H](CCCNC(=N)N)NC(=O)[C@H](CCCNC(=N)N)NC(=O)[C@H](CO)NC(=O)[C@H](CCC(=O)O)NC(=O)[C@H](CC(C)C)NC(=O)[C@H](CCC(N)=O)NC(=O)[C@H](CCCCN)NC(=O)[C@H](CO)NC(=O)[C@@H](NC(=O)[C@H](CC(=O)O)NC(=O)[C@H](CO)NC(=O)[C@@H](NC(=O)[C@H](Cc1ccccc1)NC(=O)[C@@H](NC(=O)CNC(=O)[C@H](CCC(N)=O)NC(=O)[C@H](CO)NC(=O)[C@@H](N)Cc1c[nH]cn1)[C@@H](C)O)[C@@H](C)O)c1ccccc1)C(=O)N[C@@H](CCC(=O)O)C(=O)N[C@@H](Cc1c[nH]c2ccccc12)C(=O)N[C@@H](CC(C)C)C(=O)N[C@@H](CC(C)C)C(=O)N[C@@H](C)C(=O)N[C@H](C(=O)NCC(=O)N1CCC[C@H]1C(=O)N[C@@H](CCC(=O)O)C(=O)N[C@@H](CO)C(=O)NCC(=O)N[C@@H](C)C(=O)N1CCC[C@H]1C(=O)N1CCC[C@H]1C(=O)N1CCC[C@H]1C(=O)N[C@@H](CO)C(=O)O)[C@@H](C)O
B11: SEQ ID NO: 33 (peptide)
peptide: HSQGTFTSD[1Nal]SKQLESRRAQEFIEWLLATGPESGAPPPS-OH
modifications: N-terminus assumed
SMILES: CC[C@H](C)[C@H](NC(=O)[C@H](Cc1ccccc1)NC(=O)[C@H](CCC(=O)O)NC(=O)[C@H](CCC(N)=O)NC(=O)[C@H](C)NC(=O)[C@H](CCCNC(=N)N)NC(=O)[C@H](CCCNC(=N)N)NC(=O)[C@H](CO)NC(=O)[C@H](CCC(=O)O)NC(=O)[C@H](CC(C)C)NC(=O)[C@H](CCC(N)=O)NC(=O)[C@H](CCCCN)NC(=O)[C@H](CO)NC(=O)[C@H](Cc1cccc2ccccc12)NC(=O)[C@H](CC(=O)O)NC(=O)[C@H](CO)NC(=O)[C@@H](NC(=O)[C@H](Cc1ccccc1)NC(=O)[C@@H](NC(=O)CNC(=O)[C@H](CCC(N)=O)NC(=O)[C@H](CO)NC(=O)[C@@H](N)Cc1c[nH]cn1)[C@@H](C)O)[C@@H](C)O)C(=O)N[C@@H](CCC(=O)O)C(=O)N[C@@H](Cc1c[nH]c2ccccc12)C(=O)N[C@@H](CC(C)C)C(=O)N[C@@H](CC(C)C)C(=O)N[C@@H](C)C(=O)N[C@H](C(=O)NCC(=O)N1CCC[C@H]1C(=O)N[C@@H](CCC(=O)O)C(=O)N[C@@H](CO)C(=O)NCC(=O)N[C@@H](C)C(=O)N1CCC[C@H]1C(=O)N1CCC[C@H]1C(=O)N1CCC[C@H]1C(=O)N[C@@H](CO)C(=O)O)[C@@H](C)O
B12: SEQ ID NO: 34 (peptide)
peptide: HSQGTFTSDLSKQLESRRAQEFIEWLLATGPESGAPPPS-OH
B13: SEQ ID NO: 35 (peptide)
peptide: HSQGTFTSDLSKQLESRRAQDFIEWLLATGPESGAPPPS-OH

Target: T1, human glucagon receptor (human, UniProt P47871 26-477)
Test: cell-based or functional assay

T1 sequence (P47871 26-477): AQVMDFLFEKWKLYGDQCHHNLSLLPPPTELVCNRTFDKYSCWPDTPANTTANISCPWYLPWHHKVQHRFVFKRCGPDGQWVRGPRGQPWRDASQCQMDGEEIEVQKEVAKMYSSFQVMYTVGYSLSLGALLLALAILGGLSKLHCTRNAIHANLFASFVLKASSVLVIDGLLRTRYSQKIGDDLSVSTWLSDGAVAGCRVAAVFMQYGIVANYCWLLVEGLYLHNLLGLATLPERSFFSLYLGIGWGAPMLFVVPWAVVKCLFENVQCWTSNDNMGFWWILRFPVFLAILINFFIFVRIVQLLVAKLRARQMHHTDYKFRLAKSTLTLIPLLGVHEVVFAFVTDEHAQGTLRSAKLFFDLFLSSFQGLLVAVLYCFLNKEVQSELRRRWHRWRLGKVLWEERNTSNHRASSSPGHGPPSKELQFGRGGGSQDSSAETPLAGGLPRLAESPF

Binder | EC50 hGLUC R [pM], cAMP formation
B1 | 3.5 pM
B2 | 0.7 pM
B3 | 0.8 pM

Target: T2, human GLP-1 receptor (human, UniProt P43220 24-463)
Test: cell-based or functional assay

Binder | EC50 hGLP-1 R [pM], cAMP formation
B1 | 50700 pM
B2 | 8310 pM
B3 | 23100 pM

Target: T1, human glucagon receptor
Test: cell-based or functional assay
Remark: another data set of the same source

Binder | EC50 hGlucagon-R, cAMP formation
B4 | 9.4 pM
B5 | 1.3 pM
B6 | 1 pM
B7 | 0.9 pM
B8 | 6.5 pM
B9 | 4.1 pM
B10 | 12 pM
B11 | 1.1 pM
B12 | 1.4 pM
B13 | 7.1 pM

Target: T2, human GLP-1 receptor
Test: cell-based or functional assay
Remark: another data set of the same source

Binder | EC50 hGLP-1R, cAMP formation
B4 | 1240 pM
B5 | 80.8 pM
B6 | 52.4 pM
B7 | 145 pM
B8 | 1180 pM
B9 | 941 pM
B10 | 18700 pM
B11 | 159 pM
B12 | 363 pM
B13 | 934 pM

From US20150368311A1 (Sanofi, published 2015)
